Consider three molecules from patent US20220010008A1.

Several values for one entry are separate records, joined by “and”; a condition that tells them apart may be missing. Identical values can stand only once.

For assay [1], the target named is recombinant human IL-5 protein (human) (UniProt P05113). In words: cell-based or functional assay.
Assay [2] has the same target. Description: ELISA, biotin-human IL-5 on streptavidin plate, Ab 0.0002 nM. A general note: ELISA stands for enzyme-linked immunosorbent assay.
Assay [3] has the same target. Description: ELISA, biotin-human IL-5 on streptavidin plate, Ab 0.0009 nM.
For assay [4] the target is unchanged. In words: ELISA, biotin-human IL-5 on streptavidin plate, Ab 0.0043 nM.
Assay [5] shares this target. In words: ELISA, biotin-human IL-5 on streptavidin plate, Ab 0.0213 nM.
For assay [6] the target is unchanged. Description: ELISA, biotin-human IL-5 on streptavidin plate, Ab 0.1067 nM.
For assay [7] the target is unchanged. In words: ELISA, biotin-human IL-5 on streptavidin plate, Ab 0.5333 nM.
Assay [8] shares this target. In words: ELISA, biotin-human IL-5 on streptavidin plate, Ab 2.6667 nM.
For assay [9] the target is unchanged. Description: ELISA, biotin-human IL-5 on streptavidin plate, Ab 13.3333 nM.
For assay [10] the target is unchanged. Description: FACS blocking: biotin-IL-5 bound to CHOK1 IL-5Ra/CSF2RB cells, Ab 0.0004 nM.
The target is the same in assay [11]. In words: FACS blocking: biotin-IL-5 bound to CHOK1 IL-5Ra/CSF2RB cells, Ab 0.0021 nM.
Assay [12] shares this target. Description: FACS blocking: biotin-IL-5 bound to CHOK1 IL-5Ra/CSF2RB cells, Ab 0.0107 nM.
Assay [13] shares this target. Description: FACS blocking: biotin-IL-5 bound to CHOK1 IL-5Ra/CSF2RB cells, Ab 0.0533 nM.
Assay [14] has the same target. Description: FACS blocking: biotin-IL-5 bound to CHOK1 IL-5Ra/CSF2RB cells, Ab 0.2667 nM.
Assay [15] shares this target. In words: FACS blocking: biotin-IL-5 bound to CHOK1 IL-5Ra/CSF2RB cells, Ab 1.3333 nM.
Assay [16] has the same target. In words: FACS blocking: biotin-IL-5 bound to CHOK1 IL-5Ra/CSF2RB cells, Ab 6.6667 nM.
For assay [17] the target is unchanged. In words: FACS blocking: biotin-IL-5 bound to CHOK1 IL-5Ra/CSF2RB cells, Ab 33.3333 nM.
For assay [18] the target is unchanged. Description: SPR, human IL-5 immobilized on CM5 chip, chimeric antibody as analyte, 1:1 global fit. A general note: Surface plasmon resonance follows binding to a sensor surface in real time, without labels.
Assay [19] has as its target recombinant human IL-5 protein with His tag (human) (UniProt P05113). Description: ELISA, biotin-human IL-5 on streptavidin; antibody 0.0002 nM.
Assay [20] shares this target. In words: ELISA, biotin-human IL-5 on streptavidin; antibody 0.0009 nM.
The target is the same in assay [21]. In words: ELISA, biotin-human IL-5 on streptavidin; antibody 0.0043 nM.
For assay [22] the target is unchanged. In words: ELISA, biotin-human IL-5 on streptavidin; antibody 0.0213 nM.
The target is the same in assay [23]. In words: ELISA, biotin-human IL-5 on streptavidin; antibody 0.1067 nM.
The target is the same in assay [24]. In words: ELISA, biotin-human IL-5 on streptavidin; antibody 0.5333 nM.
For assay [25] the target is unchanged. In words: ELISA, biotin-human IL-5 on streptavidin; antibody 2.6667 nM.
For assay [26] the target is unchanged. Description: ELISA, biotin-human IL-5 on streptavidin; antibody 13.3333 nM.

B1: 147D7H2 mouse-human chimeric antibody (antibody, human IgG4, V domains shown)
VH: EVQLQQSGAELVKPGASVKLSCTASGFNIKDYFIHWVKQRTEQGLEWIGRIDTEDGETKYAPKFQGKATITIDTSSNTAYLYFSSLTSEDTAMYYCARYGNYVAMDYWGQGTSVTVSS
VL: QIVLTQSPALMSASPGEKVTMTCSASSSVSYMFWYQQKPSSSPKPWIYLTSKLASGVPARFSGSGSGTSYSLTISSVEAEDAATYYCQQWNSNPYTFGGGTKLEIK
Usually Kd stands for the constant that tells how readily two partners part at equilibrium. The koff is the first-order rate constant of dissociation. The kon is a measure of how fast the partners come together. As for B1, in assay [1], the RLU, CTLL-2 proliferation with IL-5, Ab 0.000170667 nM is 50700 RLU and 51700 RLU; the RLU, CTLL-2 proliferation with IL-5, Ab 0.000853333 nM was 50800 RLU and 50700 RLU; the RLU, CTLL-2 proliferation with IL-5, Ab 0.004266667 nM is 41400 RLU and 48200 RLU; the RLU, CTLL-2 proliferation with IL-5, Ab 0.02133333 nM was 33800 RLU and 36400 RLU. For the same molecule, in assay [1], the RLU, CTLL-2 proliferation with IL-5, Ab 0.1066667 nM was 12700 RLU and 13200 RLU; the RLU, CTLL-2 proliferation with IL-5, Ab 0.5333334 nM is 9570 RLU and 10400 RLU; the RLU, CTLL-2 proliferation with IL-5, Ab 2.666667 nM is 8620 RLU and 8160 RLU; the RLU, CTLL-2 proliferation with IL-5, Ab 13.33333 nM was 7310 RLU and 6690 RLU. Further, in [1], the RLU, CTLL-2 proliferation with IL-5, Ab 66.66666 nM was 5230 RLU and 5240 RLU; the RLU, CTLL-2 proliferation with IL-5, Ab 3.41333E-05 nM was 56100 RLU and 52200 RLU; the RLU, TF-1 proliferation with IL-5, Ab 0.00001 nM is 99500 RLU and 101000 RLU; the RLU, TF-1 proliferation with IL-5, Ab 0.00003 nM is 100000 RLU and 95000 RLU. In assay [1], the RLU, TF-1 proliferation with IL-5, Ab 0.00017 nM was 96400 RLU and 88800 RLU; the RLU, TF-1 proliferation with IL-5, Ab 0.00085 nM was 89200 RLU and 82900 RLU; the RLU, TF-1 proliferation with IL-5, Ab 0.00427 nM was 56700 RLU and 54800 RLU; the RLU, TF-1 proliferation with IL-5, Ab 0.02133 nM is 45300 RLU and 43900 RLU. Moreover, in [1], the RLU, TF-1 proliferation with IL-5, Ab 0.10667 nM was 39000 RLU and 38700 RLU; the RLU, TF-1 proliferation with IL-5, Ab 0.53333 nM was 36400 RLU and 40100 RLU; the RLU, TF-1 proliferation with IL-5, Ab 2.66667 nM was 34800 RLU and 41200 RLU; the RLU, TF-1 proliferation with IL-5, Ab 13.33333 nM is 35700 RLU and 39000 RLU. The OD450 nm in assay [2] is 0.103 OD450 nm and 0.101 OD450 nm. Besides, the OD450 nm in [3] was 0.102 OD450 nm and 0.104 OD450 nm. In assay [4], the OD450 nm is 0.172 OD450 nm and 0.156 OD450 nm. The OD450 nm in assay [5] was 0.406 OD450 nm and 0.385 OD450 nm. Also, the OD450 nm in [6] was 1.25 OD450 nm and 1.3 OD450 nm. The OD450 nm in assay [7] is 2.74 OD450 nm and 2.91 OD450 nm. The OD450 nm in assay [8] was 3.22 OD450 nm and 3.35 OD450 nm. Moreover, the OD450 nm in assay [9] is 3.44 OD450 nm and 3.72 OD450 nm. Besides, in [10], the Fluorescence intensity was 94 MFI. Moreover, the Fluorescence intensity in [11] worked out at 88 MFI. Besides, in assay [12], the Fluorescence intensity is 86 MFI. Further, the Fluorescence intensity in assay [13] was found to be 94 MFI. In addition, the Fluorescence intensity in [14] worked out at 76 MFI. The Fluorescence intensity in assay [15] was determined as 52 MFI. Also, in [16], the Fluorescence intensity is 36 MFI. In addition, the Fluorescence intensity in assay [17] was 31 MFI. In addition, in [18], the Kd was < 0.0637 nM, the dissociation rate constant (koff) was < 1e-05 s⁻¹ and the kon was 157000 M⁻¹ s⁻¹.

B2: 151G3B11 (murine hybridoma antibody) (antibody, V domains shown)
VH: EVHLQQSGAELVKPGASVKLSCTASGFNIKDYYMHWVKQRTEQGLEWIGRIDPEDGETKYAPKFQGQATITADTSSNTANLQLSSLTSEDTAVYYCARYGNFPDYWGPGTTLTVSS
VL: QIVLTQSPALMSASPGEKVTMTCSASSSVSYMYWYQQKPRSSPKPWIYLTSKLASGVPARFSGSGSGTSYSLTISSMEAEDAATYYCQQWNSNPYTFGGGTKLEIK
On to B2, for which the OD450 nm is 0.103 and 0.094 in assay [19]; 0.185 and 0.186 in assay [20]; 0.625 and 0.609 in assay [21]; 2.02 and 2.11 in assay [22]; 3.5 and 3.4 in [23]; 4.03 and 3.75 in assay [24]. Moreover, the OD450 nm in assay [25] was 4.07 and 3.8; in [26], 4.07 and 4.04.

B3: 147D7H2 (murine hybridoma antibody) (antibody, V domains shown)
VH: EVQLQQSGAELVKPGASVKLSCTASGFNIKDYFIHWVKQRTEQGLEWIGRIDTEDGETKYAPKFQGKATITIDTSSNTAYLYFSSLTSEDTAMYYCARYGNYVAMDYWGQGTSVTVSS
VL: QIVLTQSPALMSASPGEKVTMTCSASSSVSYMFWYQQKPSSSPKPWIYLTSKLASGVPARFSGSGSGTSYSLTISSVEAEDAATYYCQQWNSNPYTFGGGTKLEIK
For the molecule B3, the OD450 nm is 0.073 and 0.074 in [19]; 0.088 and 0.09 in assay [20]; 0.158 and 0.159 in assay [21]; 0.438 and 0.475 in assay [22]; 1.42 and 1.47 in [23]; 2.76 in [24]. The OD450 nm in assay [25] was 3.09 and 3.2; in [26], 3.21 and 3.52.
